What all share (type): biochemical, Homo sapiens
Common to all, as to conditions: 50 mM Tris-HCl pH 7.5, 0.4 mM MnCl2, 0.1 mg/ml BSA, 37 °C

Substrate in series [1]: N=c1c2ncn3c2ncn1[C@@H]1O[C@H](COP(=O)(O)OP(=O)(O)OC[C@H]2O[C@@H]3[C@H](O)[C@@H]2O)[C@@H](O)[C@H]1O
Kind of series: HPLC assay of pRibAMP formation. An excerpt: HPLC assay of pRibAMP formation on human ADPRibase-Mn | displaying a decreased kcat for cADPR (Supplementary Table S1)

Substrate in series [2]: Nc1ncnc2c1ncn2[C@@H]1O[C@H](CO)[C@H]2OP(=O)(O)O[C@H]21
The experiment in a line: colorimetric phosphate assay coupled to alkaline phosphatase.

Substrate in series [3]: C[N+](C)(C)CCOP(=O)(O)OP(=O)([O-])OC[C@H]1O[C@@H](n2ccc(N)nc2=O)[C@H](O)[C@@H]1O
Described as above.

Substrate in series [4]: Nc1ncnc2c1ncn2[C@@H]1O[C@H](CO)[C@H]2OP(=O)(O)O[C@H]21
Kind of series: colorimetric phosphate assay coupled to alkaline phosphatase, Michaelis-Menten fit.

Substrate in series [5]: C[N+](C)(C)CCOP(=O)(O)OP(=O)([O-])OC[C@H]1O[C@@H](n2ccc(N)nc2=O)[C@H](O)[C@@H]1O
Described as above.

Substrate in series [6]: N=c1c2ncn3c2ncn1[C@@H]1O[C@H](COP(=O)(O)OP(=O)(O)OC[C@H]2O[C@@H]3[C@H](O)[C@@H]2O)[C@@H](O)[C@H]1O
Kind of series: HPLC assay of pRibAMP formation, initial rates, Michaelis-Menten fit.

Substitutions are numbered along the chain they refer to. In names and notes the source's numbering stands.

B1: human ADPRibase-Mn (Homo sapiens; C253V) (protein)
chain: MDDKPNPEALSDSSERLFSFGVIADVQFADLEDGFNFQGTRRRYYRHSLLHLQGAIEDWNNESSMPCCVLQLGDIIDGYNAQYNASKKSLELVMDMFKRLKVPVHHTWGNHEFYNFSREYLTHSKLNTKFLEDQIVHHPETMPSEDYYAYHFVPFPKFRFILLDAYDLSVLGVDQSSPKYEQCMKILREHNPNTELNSPQGLSEPQFVQFNGGFSQEQLNWLNEVLTFSDTNQEKVVIVSHLPIYPDASDNVVLAWNYRDALAVIWSHECVVCFFAGHTHDGGYSEDPFGVYHVNLEGVIETAPDSQAFGTVHVYPDKMMLKGRGRVPDRIMNYKKERAFHC
notes: human liver cDNA, pGEX-6P-3-hADPRM, E. coli BL21; GST tag removed with PreScission protease, N-terminal extension … kept
B1: the Km in series [1] was 0.56 ± 0.18 mM; in series [2], 2,380 ± 250 µM; in series [3] it was 1,120 ± 115 µM. The turnover number (kcat) in series [1] was determined as 1.6 ± 0.1 s⁻¹; in series [2] it was 148 ± 8 s⁻¹; in series [3] it was 109 ± 9 s⁻¹.

B2: human ADPRibase-Mn (Homo sapiens; C253G/F37A/L196F/V252A) (protein)
chain: B1 chain with F37A, L196F, V252A, V253G
notes: as for B1
In the case of B2, the Km in series [4] came out at 8.7 mM; in series [5], 10.6 mM; in series [6] it was 0.14 mM. The kcat in series [4] is 12 s⁻¹; in series [5], 37 s⁻¹; in series [6], 13 s⁻¹.

For orientation: Km means the substrate concentration at which the rate is half of its maximum. By kcat is commonly meant the maximal rate divided by the concentration of active sites.

The values above are taken from article PMC5773619, “Specific cyclic ADP-ribose phosphohydrolase obtained by mutagenic engineering of Mn^2+-dependent ADP-ribose/CDP-alcohol diphosphatase” (Scientific Reports, 2018).
